“Also recorded” adds a separate entry of the source.
Key:
[1] = test system: collagen type IV treated with N-Glycosidase F; assay: Adhesion to N-glycosidase F treated collagen type IV; type: binding, human; conditions: 0.5 U N-glycosidase F, 3 hours; data not shown
Experimental: Figure 3 Adhesion of Als5 to collagen type IV involves recognition of carbohydrate residues on collagen type IV but is not solely determined by it. (A) Adhesion of GST-Als5, GST-Als5-SS to collagen type IV. Different amounts of collagen type IV, as shown in the figure, were immobilized in 96-well flat bottomed ELISA plates and incubated with the proteins (0.09 mg/ml) of interest at 37 °C for 1 hour. The adhesion assay was carried out as described in Experimental Procedures. Adhesion of the proteins to collagen type IV was correlated to the absorbance at 650 nm observed by the oxidation of TMB, the substrate of HRP. […] Buffer controls (OD 650nm of 0.126 ± 0.003), corresponding to no immobilized collagen, have been subtracted in all cases. […] The data presented is mean of 3 independent experiments done in duplicates. […] (B) Treatment of collagen type IV with N-Glycosidase F results in decrease in adherence of GST-Als5. […] Adherence to collagen type IV was detected as already described. […]
Supplementary file pone.0035305.s005.tif: Figure S5 Treatment of collagen type IV with N-Glycosidase F results in decrease in adherence of GST-Als5. […] GST-Als5 was incubated before the adherence was detected by using primary anti-GST antibody and anti-rabbit HRP-conjugated secondary antibody and is represented in this figure by the Absorbance at 650nm observed upon oxidation of the specific substrate of HRP. […]

[2] = Aggregation/precipitation on concentrating the protein; type: physicochemical; conditions: attempts to concentrate protein above ∼0.09 mg/ml
From the text: However, we observed bands of Mr ∼270 kDa, for both GST-Als5 and GST-Als5-SS (Figure 1B). This marked difference between the observed molecular weights in SDS-PAGE and the expected molecular weights has been previously attributed to the high content of hydroxyl amino acids in proteins; both Als5 and Als5-SS are rich in serine and threonine residues.
It must be pointed out that a PreScission^TM protease site exists between the fusion tag and the Als5 proteins in the two constructs. However, our attempts to cleave off the fusion tag with the protease met with poor success. The PreScission^TM protease is also available as a GST-tagged enzyme and it is possible that steric factors precluded the interaction of the protease with the cleavage site in our fusion protein. Additionally, our protein yields to begin with were very low (∼0.09 mg/ml) and this too could have affected the efficiency of the cleavage. […] We used similarly expressed and purified GST as the control for all our experiments. Similar studies with GST-tagged proteins, including conformational studies, have been reported by other groups previously (cf.).

[3] = Aggregation by transmission electron microscopy; type: physicochemical; conditions: 37 °C
Experimental: Transmission Electron Microscopy (TEM)
TEM studies were carried out on a JEOL 2100F. The proteins (0.09 mg/ml) were incubated at 37 °C for 2 weeks prior to the measurements. The proteins were spotted on a carbon-coated copper grid and positively stained with 2% uranyl acetate. The sample was then dried and examined by TEM using a 210 kV accelerating voltage.
Figure 5 Transmission electron microscope images showing aggregation by GST-Als5. […] The scale bar in each panel represents 100 nm. Left panel: 10,000X magnification. Right panel: 25,000X magnification.
(A) Prediction of β-aggregation potential for the GPI anchor attachment signal sequence (SS). The prediction of β-aggregation potential for the SS was done using TANGO (residues 1328–1347). Also shown is the propensity for α-helix, β-turn and β-sheet formation in the unfolded polypeptide chain as predicted by TANGO. […] (B). Transmission electron microscope images showing aggregation by SS and SS in the presence of GST-Als5. The samples, SS (40.0 µM), GST-Als5 (0.4 µM) and GST-Als5 (0.4 µM) + SS (40.0 µM) were incubated as 37 °C for two days before TEM images were recorded.

B1: GST-Als5: GST fusion of full length Als5 minus the GPI anchor attachment signal sequence, expressed in E. coli (protein)
chain: ITGIFNSIDSLTWSNAGNYAFKGPGYPTWNAVLGWSLDGTSANPGDTFILNMPCVFKFTASQKSVDLTADGVKYATCQFYSGEEFTTFSSLKCTVNNNLRSSIKALGTVTLPIAFNVGGTGSSVDLEDSKCFTAGTNTVTFNDGSKKLSIAVNFEKSTVDQSGYLTTSRFMPSLNKIATLYVAPQCENGYTSGTMGFSTSYGDVAIDCSNVHIGISKGVNDWNHPVTSESFSYTKSCSSFGISITYQNVPAGYRPFIDAYISPSDNNQYQLSYKNDYTCVDDYWQHAPFTLKWTGYKNSDAGSNGIVIVATTRTVTDSTTAVTTLPFNPSVDKTKTIEILQPIPTTTITTSYVGVTTSYSTKTAPIGETATVIVDVPYHTTTTVTSEWTGTITTTTTRTNPTDSIDTVVVQVPLPNPTTTTTQFWSESFTSTTTITNSLKGTDSVIVREPHNPTVTTTEFWSESYATTETITNGPEGTDSVIVREPHNPTVTTTEFWSESYATTETVTNKPEGTDSVIIKEPHNPTVTTTEFWSESYATTETITTGPLGTDSIVIHDPLEESSSTTAIESSDSNISSSAQESSSSVEQSSSIVGLSSSSDIPLSSDMPSSSSTGLTSSESSTVSSYDSDSSSSSELSTFSSSESYSSSISDTTNFWDSSSSDLESTSITWSSSIDAQSSQSVQSVSNSISTSQETTSSSGEESNTSVTDILVSSDASSILNSDISSYYPSSTISLSDDFPHTIAGEPDSRSSSSIASTVEISSDLVSLTSDPTSSFDSSSSLNSDSSSSPFSDESDISASSSFSTLVAPSFSLSSSSSLSLTYPHYVNSTTYHASESESSSVASPSMASESANDDTHTLSESTDTTSSIGTDSSTVTFCRRDNGDGCIVTGMPSSSIDSEQTSDVTTTSSFVASSTPTSAEQSITDNPNIDSSQTSASSSTKSSVSVSDTVVNSISLSETSTLSSDDSTSSDTSISSTTNSDTGNINAGSSHTSTASIKESSIQKTGVMLSSSYLSTKLSSTSDITTELITTELITTELTTIEDNEPNTFTSTPSSHSEIFSSDNSVLSKQVDRESTIKTSPTTDVTTVSSLSVHSTEASTATLGENSFSNVASTPSNIATSLRSTSSSSNHATESSGTVKSEASAEAIPSPPTSTDNRLSYSTEEAKGITYANSGSTNNLITESQVAAPTDSTSVLIENPVVTSTFDDNSSAAVDQPSKTKSIEESIMNPDSTNETNNGFIATLSQAQVPNSLIHSESISTTMAKTTDASINGDSAASNSQPTTLIQQVATSSYNQPLITTYAGSSS
modifications: left off: GST, N-terminal, kept
For B1, the “effect of longer deglycosylation on adhesion (in words)” value [1] was “did not further reduce the adhesion”, the “aggregation and precipitation on concentrating (in words)” value [2] was “aggregating and precipitating out; also recorded: tended to aggregate and precipitate out of solution” and the “aggregation (in words)” value ([3]; 2 weeks, 0.4 µM / 0.09 mg/ml (method)) was “significantly higher amount of aggregation as compared to either GST-Als5-SS or GST alone; also recorded: showed significant amount of aggregation”. For the same molecule, the “aggregation (in words)” value ([3]; 2 days, SS 40.0 µM, GST-Als5 0.4 µM, alone or together) was “aggregates both in the absence as well as in the presence of SS”.

Reference: PMC3324464, “The GPI Anchor Signal Sequence Dictates the Folding and Functionality of the Als5 Adhesin from Candida albicans” (PLoS ONE, 2012)
